# From patent US12018058B2, “Compositions and methods for diagnosing and/or treating kidney injury” (Boston Medical Center Corporation, priority 2018, dated 2024)
# “Also recorded” adds a separate entry of the source.
# Tests used:
# Format in all cases: cell-based
# PTEC = assay: Toxicity of pharmacologic agents in PTEC; conditions: exposure to the IC50 dose for 48-72 hr; data not shown
# Excerpt: The inventors have also tested pharmacologic agents that disrupt NPM-Bax at specific steps in the cell death pathway (outlined in FIG. 11). These agents include geronylgeronylacetone (GGA), a potent Hsp70 inducer86, avrainvillamide, and NSC34888437. […] The inventors recently reported that GGA induces Hsp70 in murine PTEC and in the intact murine kidney. Hsp70 markedly reduces NPM-Bax complex formation during ischemic stress by 2 distinct mechanisms: a nucleolar-restricted Hsp70 mutant limits NPM translocation into the cytosol, whereas a cytosol restricted Hsp70 mutant sequesters […].
# primary human PTECs = conditions: PTECs, ATP depletion; versus control peptide
# Protocol: Exposure to metabolic inhibitors is an established model of ischemic stress that reduces ATP content to, 10% of baseline values until recovery is initiated.24,26 To achieve ATP depletion, cells were washed three times in glucose-free DMEM (Invitrogen, Carlsbad, CA) followed by incubation in glucose-free DMEM containing sodium cyanide (5 mM) and 2-deoxy-glucose (5 mM) for the indicated times.26
# Recovery was initiated by replacing the stress medium described above with complete primary cell culture medium containing glucose and substrates that support the rapid restoration of cell ATP.27
# For in vitro testing in primary human PTECs, peptides ([…]) were tested that replicate the Bax domain responsible for binding NPM,34 or two peptides designed to interfere with NPM function were compared with a random nonspecific sequence of the same length (control). Peptides intended to interfere with NPM function overlap key phosphorylation sites located at the NPM amino terminus (peptide 2) or carboxy terminus (peptide 3) detected by mass spectrometry. To improve cell uptake, all peptides contained a cell-penetrating sequence13. For in vivo experiments, a renal-targeting sequence (NLS) was added to enhance renal peptide uptake.35 Peptides were commercially synthesized (Biomatik, Wilmington, DE) J Am Soc Nephrol 30: ccc-ccc, 2018 Nucleophosmin in AKI 3www.jasn.org BASIC RESEARCHas follows: NPM-Bax blocking peptide: Ac-KKKRKV-(bA)-[…]-COOH (SEQ ID NO: 8); peptide 2: AC-PKKKRKV-(bA)-[…]-COOH (SEQ ID NO: 9); and peptide 3: AC-PKKKRKV-(bA)-ESFKK-QEKTPKTPKGPSSVED-IKAK-COOH (SEQ ID NO: 10). A single dose ([…] of the NPM-Bax blocking or control peptide) was administered by tail vein injection immediately after release of the pedicle clamps(0 timepoint) […] in each experimental group. A total of 42 control and 56 experimental animals were studied.
# Transient exposure to metabolic inhibitors replicates ischemia in vivo by activating Bax and causing cell death.13,29,36-38 Cell viability was assayed using a modified colorimetric technique (MTTassay).37 The number of surviving cells is expressed as a percentage of viable control cells detected at baseline. Serum BUN and creatinine levels were measured in tail vein blood samples for 7 days after ischemia using QuantiChrom BUN or creatinine assay kits (BioAssay Systems, Hayward, CA) according to the manufacturer's instructions.
# [1] = tested on: primary murine proximal tubule epithelial cells (PTECs); assay: Functional bioassays of flag-tagged NPM phosphomimic proteins expressed in PTECs; conditions: for Postischemia cell survival: 60 minutes ATP depletion, FIG. 5E; for NPM localization in resting cells: absence of ischemic stress, FIG. 5A; for NPM-Bax complex formation: after ATP depletion, FIG. 5C; for NPM and active Bax accumulation in isolated mitochondria: after ischemic stress, FIG. 5D; for NPM oligomeric state: resting cells, native gel, FIG. 5B
# Excerpt: The biologic behavior of nucleophosmin (NPM) phosphomimic proteins assessed using functional bioassays performed in primary murine proximal tubule epithelial cells (PTECs) that express flag-tagged wild type (WT), a normal (Nor-M or NrNPM) NPM mimic protein, or a stress (Stre-M, StNPM, or Stress-M) NPM mimic protein that replicates differential NPM phosphorylation. […] EV, empty sgOpti vector; RDU, relative density unit. *P, 0.05 for Nor-M and Stress-M NPM phosphomimics versus control (CTL).
# Human NPM cDNA (catalog no. 34553; Addgene, Cambridge, MA) and pCDH lentivector systems (System Biosciences, Mountain View, CA) were used to generate NPM wild-type, “NPM stress mimic” (T86E-S88E-T95E-T234A-S242A), and “NPM normal mimic” (T86A-S88A-T95A-T234E-S242E) lentiviral expression plasmids by PCR-based mutagenesis with a flag tag fused to the 59 open reading frame. PCR products were cloned into pCDH vector BamHI/EcoRI sites. All constructs were confirmed by DNA sequencing before cotransfection with pPACKG1 lentivector packaging plasmids into HEK293NT cells to generate lentipseudoviral particles. The resultant pseudoviruses were harvested and purified, and titers were determined according to the manufacturer's instructions. Cells were exposed to virus (MOT 5-8) diluted in Opti-MEM (Invitrogen). After 6 hours incubation with virus-infected medium, a complete culture medium was substituted for an additional 16-hour incubation period.
# To determine the biologic role of differential NPM phosphorylation at these five serine/threonine sites and the contribution to cytotoxicity, two flag-tagged NPM phosphomutant proteins as well as wild-type NPM were generated and introduced into human proximal tubule cells. These two mimic proteins replicated the phosphorylation state of NPM in either its normal or stressed configuration at the five differentially phosphorylated sites identified by mass spectrometry (FIG. 4). Specific bioassays were then used to assess the effect of these five post-translational phosphorylation changes on toxic NPM behaviors, including translocation, deoligomerization, NPM-Bax complex formation, mitochondrial NPM and Bax accumulation, and cell death.
# Based on this phospho-proteomic data, 32 site-specific, amino terminal, flag-tagged NPM proteins with differential phosphorylation were generated (see FIG. 4B) and placed in a lentiviral vector ([…] phospho-mimic proteins; ref Wang, Havasi et al. 2011). Both the plasmid sequence and protein expression were confirmed. Serine or threonine residues in each of the NPM phospho-mimics was rendered either nonphosphorylatable (alanine substitution) or phospho-mimetic (glutamic acid substitution) at each of the 5 NPM residues identified by mass spec to be altered by ischemia. These NPM phospho-mimics represent all of the possible combinations of constitutively non-phosphorylated and phosphorylated variants at all of the 5 phosphosites ([…], see table, FIG. 4B). The flag epitope facilitates immunohistochemistry for detecting NPM distribution, NPM oligomerization and immunoprecipitation (IP) for detecting interaction between Bax and each NPM phospho-mimic. To establish a causal link between phosphorylation and NPM-function, a flag-tagged NPM mimic that replicated the NPM phospho-state in healthy PTEC and kidney tissue (#10, “normal NPM mimic”) or replicated NPM phosphorylation in post-ischemic cells and tissue (#11; “stress-NPM mimic”; FIG. 4B) was introduced into primary murine PTEC for further study. Dramatic differences in the biologic behavior of these 2 NPM phospho-mimics were detected. […] Using this phospho-data generate 2 new therapeutic peptides that target either T86, S88 and T95 or T232 and S240 were generated (FIG. 4A) and tested (FIG. 7). Screening the remaining NPM mimic proteins can identify the specific function of all 5 phospho-sites.
# [2] = listed as normal NPM-phospho-mimic
Molecule,PTEC morphology and toxicity (PTEC),Cell survival after ischemic stress (primary human PTECs),Postischemia cell survival [1],NPM-Bax complex formation [1],NPM and active Bax accumulation in isolated mitochondria [1],NPM oligomeric state [1],further results
O=C(C[n+]1cccc2cc(Cl)ccc21)c1cccc([N+](=O)[O-])c1.[Br-] [NSC34888437],does not alter PTEC morphology or cause significant toxicity,,,,,,
CC1(C)C=Cc2c(ccc3c2[N+]([O-])=C2C3=C[C@@]34NC(=O)[C@]5(CCCN5C3=O)C[C@H]4C2(C)C)O1 [avrainvillamide],does not alter PTEC morphology or cause significant toxicity,,,,,,
"AC-PKKKRKV-(bA)-ESFKK-QEKTPKTPKGPSSVED-IKAK-COOH (PKKKRKVAESFKKQEKTPKTPKGPSSVEDIKAK; N-acetyl, NLS PKKKRKV-betaAla N-terminal; MOD_RES (8)..(8) Beta-alanine) [peptide #3]",,significantly improve cell survival,,,,,
"AC-PKKKRKV-(bA)-TLKMSVQPTVSLGGFEITPPVVLRLK-COOH (PKKKRKVATLKMSVQPTVSLGGFEITPPVVLRLK; N-acetyl, NLS PKKKRKV, beta-alanine linker; MOD_RES (8)..(8) Beta-alanine) [peptide #2]",,significantly improve cell survival,,,,,
"normal mimic NPM: flag-tagged NPM phosphomutant T86A-S88A-T95A-T234E-S242E expressed by lentivirus (protein, left off: small tags and cut ends, flag-tagged NPM phosphomutant T86A-S88A-T95A-T234E-S242E expressed by lentivirus) MEDSMDMDMSPLRPQNYLFGCELKADKDYHFKVDNDENEHQLSLRTVSLGAGAKDELHIVEAEAMNYEGSPIKVTLATLKMSVQPAVALGGFEIAPPVVLRLKCGSGPVHISGQHLVAVEEDAESEDEEEEDVKLLSISGKRSAPGGGSKVPQKKVKLAADEDDDDDDEEDDDEDDDDDDFDDEEAEEKAPVKKSIRDTPAKNAQKSNQNGKDSKPSSTPRSKGQESFKKQEKEPKTPKGPESVEDIKAKMQASIEKGGSLPKVEAKFINYVKNCFRMTDQEAIQDLWQWRKSL",,,significantly reduced cell death; also recorded: improved PTEC survival,decreased NPM-Bax complex formation,decreased,formed large oligomers,"NPM localization in resting cells ([1]; listed as normal NPM phosphomimic): accumulated in a nucleolar pattern; NPM localization in resting cells [1, 2]: exclusively localized to nucleoli; NPM-Bax complex formation [1, 2]: minimally complexed with Bax; NPM and active Bax accumulation in isolated mitochondria [1, 2]: did not accumulate in isolated mitochondria; NPM oligomeric state [1, 2]: remained in the oligomerized state"
"stress mimic NPM: flag-tagged NPM phosphomutant T86E-S88E-T95E-T234A-S242A expressed by lentivirus (protein, left off: small tags and cut ends, flag-tagged NPM phosphomutant T86E-S88E-T95E-T234A-S242A expressed by lentivirus) MEDSMDMDMSPLRPQNYLFGCELKADKDYHFKVDNDENEHQLSLRTVSLGAGAKDELHIVEAEAMNYEGSPIKVTLATLKMSVQPEVELGGFEIEPPVVLRLKCGSGPVHISGQHLVAVEEDAESEDEEEEDVKLLSISGKRSAPGGGSKVPQKKVKLAADEDDDDDDEEDDDEDDDDDDFDDEEAEEKAPVKKSIRDTPAKNAQKSNQNGKDSKPSSTPRSKGQESFKKQEKAPKTPKGPASVEDIKAKMQASIEKGGSLPKVEAKFINYVKNCFRMTDQEAIQDLWQWRKSL",,,significantly lower,substantially greater,exceeded that observed with wild-type or normal mimic NPM,accumulated as small monomers,Postischemia cell survival ([1]; listed as stress NPM mimic): significantly decreased PTEC survival; NPM localization in resting cells ([1]; listed as NPM stress mimic protein): localized to the cytosol; NPM localization in resting cells ([1]; listed as stress NPM mimic): exclusively localized to the cytosol; NPM-Bax complex formation ([1]; listed as stress NPM mimic): markedly increased NPM-Bax complex formation; NPM and active Bax accumulation in isolated mitochondria ([1]; listed as stress NPM mimic): dramatically increased NPM accumulation in isolated mitochondria; NPM oligomeric state ([1]; listed as stress NPM mimic): caused marked NPM de-oligomerization
